Columns and labels:
[1] = molecular target: the molecule itself; assay: SEC, self-association into poly-rIgA1
[2] = molecular target: the molecule itself; assay: SEC, non-reducing SDS-PAGE and TEM; self-association of rIgA duplexes into poly-rIgA
Method: Before running on SEC, samples were treated with the drugs at indicated concentrations at 37° C. for one hour.
(§1) In the meantime, the SEC column was also equilibrated with PBS supplemented with the reducing agent at the same concentration. For running SEC, 100 μL of the recombinant IgA (concentration varies between 1 mg/mL and 8 mg/mL) or purified native human IgA1 (˜1 mg/mL) was loaded to the column and UV absorption was recorded following elution. Recombinant IgA typically formed two elution peaks: a minor peak of ˜800 kDa poly-rIgA followed by a major peak of ˜170 kDa of monomeric rIgA. The ratios between poly-rIgA and mono-rIgA were calculated as between the corresponding areas under the curve (AUC), and the treatment effect of the thiol agents was judged by the reduction of the poly-rIgA level with a compensatory increase of the mono-rIgA content.
To further investigate specific cysteine residue(s) involved in IgA complexes, expression vectors were constructed to produce recombinant IgA (rIgA) Fc segments of rat and human sequences (FIG. 2, part A) as discussed above. Rat IgA analogs were expressed in BL21 DE3 strain of E. coil and recombinant protein were purified from the bacterial lysate using Histrap HP columns (GE Healthcare) by running fast protein liquid chromatography (FPLC). […]

[3] = molecular target: the molecule itself; assay: SEC, self-association into poly-rIgA
Method: as §1
Considering that the fragment contained Cys311 and Cys471 that, in the absence of J-chain and SC, were in their free forms and available for connecting other rIgA units, mutagenesis studies were conducted of these two cysteines. Cys311 and Cys471 were either individually, or together, mutated to serine (S) as discussed above. […] By examining the SEC traces of these mutants, it was noticed that, while the monomers of all variants appeared the same, there were dramatic differences in the poly-rIgA contents. […] Meanwhile, C311S-alone still had poly-rIgA contents, albeit eluted at a different time in SEC than the wild-type protein (FIG. 3, part F). […]

B1: human rIgA1-Fc (human IgA1-Fc CH2-CH3-TP) (other)
chain: SCCHPRLSLHRPALEDLLLGSEANLTCTLTGLRDASGVTFTWTPSSGKSAVQGPPERDLCGCYSVSSVLPGCAEPWNHGKTFTCTAAYPESKTPLTATLSKSGNTFRPEVHLLPPPSEELALNELVTLTCLARGFSPKDVLVRWLQGSQELPREKYLTWASRQEPSQGTTTFAVTSILRVAAEDWKKGDTFSCMVGHEALPLAFTQKTIDRLAGKPTHVNVSVVMAEVDGTCY
notes: Produced in HEK293 cells, secreted; also called hu-rIgA; wild-type rIgA1; not shown: 6xHis-tag at the N-terminus after the IL-2 signal peptide (secreted)
B1: binds [1].

B2: wild-type rat IgA-Fc segment of CH2-CH3-TP (recombinant rat rIgA) (other)
chain: SCSLVCRPRLSLQRPALEDLLLGSEASLTCTLRGLKEPTGAVFTWQPTTGKDAVQKEAVQDSCGCYTVSSVLPGCAERWNNGETFTCTATHPEFETPLTGEIAKVTENTFPPQVHLLPPPSEELALNELVSLTCLVRGFNPKDVLVRWLQGNEELPSESYLVFEPLREPGEGAITYLVTSVLRVSAETWKQGAQYSCMVGHEALPMSFTQKTIDRLSGKPTNVNVSVIMSEGDGICY
notes: Expressed in E. coli BL21 DE3; Two chains form a duplex called mono-rIgA; poly-rIgA is its disulfide-linked self-aggregate; also called mono-rIgA; poly-rIgA; not shown: N-terminal 6xHis-tag from the PET30a vector
B2: binds [2].

B3: rat rIgA C311S single mutant (other)
chain: SCSLVCRPRLSLQRPALEDLLLGSEASLTCTLRGLKEPTGAVFTWQPTTGKDAVQKEAVQDSCGCYTVSSVLPGSAERWNNGETFTCTATHPEFETPLTGEIAKVTENTFPPQVHLLPPPSEELALNELVSLTCLVRGFNPKDVLVRWLQGNEELPSESYLVFEPLREPGEGAITYLVTSVLRVSAETWKQGAQYSCMVGHEALPMSFTQKTIDRLSGKPTNVNVSVIMSEGDGICY
notes: also called C311S-alone; not shown: N-terminal 6xHis-tag from the PET30a vector
B3: binds [3].
